We go through 133 substances from the supplement of paper PMC12042874.

± gives the uncertainty stated by the source.

The data set is described as follows: amyloid nucleation score (Sup35N fusion, yeast selection) (log enrichment); library NNK3; higher = more nucleation; inactive = no reads after selection. The method in brief: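 Peptides of 20 random codons fused to Sup35N were expressed in psi-negative yeast, induced 24 hours with 100 μM copper sulfate, then grown 7 days at 30°C on medium lacking adenine and uracil. Input and output plasmid inserts were Illumina-sequenced. Nucleation score is the DiMSum log enrichment of output over input reads, centred on the mode score of non-aggregating sequences, excluding sequences with under 100 input reads. Random libraries had three technical output replicates.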
LLRRNINMFSIQFFSRVTWL: the amyloid nucleation score was -0.141 ± 0.96.

For SGYLYFFLRSVDCRFLTSSL, the amyloid nucleation score result is “inactive”.

Consider SCFCNVFVVDMMSLSMGDIL, for which the amyloid nucleation score is 2.4 ± 0.05.

MRSYFEDFCGFQAIRS came in with an amyloid nucleation score of 1.07 ± 0.14.

As to VYFENSGFTTVTREACLY, the amyloid nucleation score result was “inactive”.

Consider QNCQVLKFRAILFNYLLFLT, for which the amyloid nucleation score result is “inactive”.

For the substance LNFNSWNGLKYR, the amyloid nucleation score result was “inactive”.

As for EGEVCSVCY, the amyloid nucleation score result is “inactive”.

With FKQMDTLTHISFSKAIMPSF, the amyloid nucleation score entry is “inactive”.

Turning to ILPDLRTFPWSPVVIVHSR, the amyloid nucleation score result is “inactive”.

KYSTSPNFKIIQVLMGLPLR: the amyloid nucleation score entry is “inactive”.

With YLGCSINLGTEDIIYAESEH, the amyloid nucleation score result is “inactive”.

Turning to KAERVVRA, the amyloid nucleation score result is “inactive”.

With WGILW, the amyloid nucleation score stood at 0.482 ± 0.15.

For ERVLRVNHYWICSFPFNPGV, the amyloid nucleation score result is “inactive”.

Regarding RPLTVKKY, the amyloid nucleation score was -0.538 ± 1.4.

SYGDPCQAKGQIRIVYGWHW: the amyloid nucleation score stood at 0.308 ± 0.25.

Consider GRWLV, for which the amyloid nucleation score entry was “inactive”.

For KRDEVVKFLLDGVGASGYNA, the amyloid nucleation score entry was “inactive”.

The substance NYSRPEL returned an amyloid nucleation score of 0.782 ± 0.17.

Take RVARMFGEY: the amyloid nucleation score result was “inactive”.

As for KRASMPVPGSSWLHQFKE, the amyloid nucleation score result was “inactive”.

Take LYYSWKKEYQFIWVVHTFAK: the amyloid nucleation score result is “inactive”.

With LIFFRVVSQLFKFSLRDLPL, the amyloid nucleation score result is “inactive”.

Regarding LKMMSLLTSEATSMHHGVNW, the amyloid nucleation score result was “inactive”.

Turning to GYLLVVW, the amyloid nucleation score result was “inactive”.

With ISFGYQVYA, the amyloid nucleation score result is “inactive”.

For the substance CDAHSLSMLRVQIK, the amyloid nucleation score result is “inactive”.

The substance CNMGYSIFVFILNLSPV gave an amyloid nucleation score of 1.99 ± 0.09.

On to KCRGGRETIRLRRSLWVFMV, for which the amyloid nucleation score result was “inactive”.

With QCPKCDLLMRDSDIRFTHAG, the amyloid nucleation score entry was “inactive”.

On to NGLLNRQSTSWWSTLNYCGD, for which the amyloid nucleation score result was “inactive”.

For SRILRYVTLSEYWFQPIGLD, the amyloid nucleation score entry is “inactive”.

In turn, LIVNSRSVFNITHFLNINYQ displayed an amyloid nucleation score of 2.1 ± 0.077.

Regarding PSVIRNAYYAY, the amyloid nucleation score result was “inactive”.

With FVIELCMWVRLEDVKLCFID, the amyloid nucleation score entry was “inactive”.

As for SICCMWMWMACAIKFQNTRR, the amyloid nucleation score was -0.519 ± 1.9.

Regarding VVMFSTPDIVDILSHVYRLG, the amyloid nucleation score entry was “inactive”.

CFRCFGKGCHILAYGVYC: the amyloid nucleation score result is “inactive”.

For the substance HFEIVSVANKITYCLCQQML, the amyloid nucleation score turned out to be 2.28 ± 0.075.

Consider PYLRT, for which the amyloid nucleation score result is “inactive”.

In the case of VSEIW, the amyloid nucleation score entry is “inactive”.

Turning to CRVRGAVRSLLHTVFKVDWV, the amyloid nucleation score result was “inactive”.

For the substance NNVVVL, the amyloid nucleation score result is “inactive”.

With FKITEYVSFNGTRPDNISMN, the amyloid nucleation score is -0.082 ± 0.85.

As for ISNSYH, the amyloid nucleation score entry is “inactive”.

In turn, CDHFQWYFLDRCLSVRCMIF registered an amyloid nucleation score of 0.054 ± 0.36.

In the case of FLCTLSMWYCIDRTFMYMCS, the amyloid nucleation score is -0.053 ± 0.32.

GSMMLWCFIDSSWDLSLRK gave an amyloid nucleation score of 0.884 ± 0.19.

HSNSRD: the amyloid nucleation score is -0.231 ± 0.69.

RYFAMGFRNSCYL had an amyloid nucleation score of 2.02 ± 0.065.

With VDNSERLSLHPSVHMGDMGF, the amyloid nucleation score result is “inactive”.

WILLGNGSMNMKSCFMLLFV: the amyloid nucleation score entry was “inactive”.

On to ISMLTVVSN, for which the amyloid nucleation score result is “inactive”.

Turning to GYISMSNKHMGVYIHLA, the amyloid nucleation score entry was “inactive”.

Consider YDKVLRPMVSYYSR, for which the amyloid nucleation score entry is “inactive”.

As to KRYNRFIGHLMTLYRASMGD, the amyloid nucleation score was -0.714 ± 0.88.

Consider VIWAVPAH, for which the amyloid nucleation score entry was “inactive”.

Regarding DWSYEKWLACSGFYGRRRL, the amyloid nucleation score result is “inactive”.

In the case of SRCPRMGYQHALRRWLLPVW, the amyloid nucleation score result was “inactive”.

As to YTFNVNITPFTMYHSFIYFS, the amyloid nucleation score came out at 3.08 ± 0.051.

As for CPMVLSQEGSTAPEQCVGLG, the amyloid nucleation score entry was “inactive”.

On to QTVTRLTNSNSKLYFQPDVA, for which the amyloid nucleation score result is “inactive”.

Turning to TVYSGWCTREVRICEPMNRG, the amyloid nucleation score result was “inactive”.

As for TEPRMLGMCPAVVERMRVEG, the amyloid nucleation score entry was “inactive”.

Take VCNIAQ: the amyloid nucleation score entry is “inactive”.

On to RYSEWPAD, for which the amyloid nucleation score result is “inactive”.

Regarding NWGVYCVRDLWYRHSDMYHR, the amyloid nucleation score entry is “inactive”.

As to LYEGD, the amyloid nucleation score result is “inactive”.

As for WVYDSTIRHHH, the amyloid nucleation score result was “inactive”.

For VWIRRTCDFNQYRESDLLIR, the amyloid nucleation score entry was “inactive”.

Take DKDRVVSCMMTLLLSVGCAV: the amyloid nucleation score result is “inactive”.

As for IYTSGWINYSIARFACCIRW, the amyloid nucleation score entry was “inactive”.

With FRMTPHIGALSNRLHVTTWL, the amyloid nucleation score was -0.226 ± 0.7.

With VVLMALVQVYFTSGGMFIKD, the amyloid nucleation score result was “inactive”.

Take YWNFYSSNLYWT: the amyloid nucleation score result was “inactive”.

In the case of NNTDCYESNVVFFSTAIHLS, the amyloid nucleation score was 1.6 ± 0.12.

Turning to YYVRRIMT, the amyloid nucleation score result was “inactive”.

Consider LAAICYEVFGCGTWMGC, for which the amyloid nucleation score entry is “inactive”.

For the substance CKCEQVFLGLNLRYKEHDAW, the amyloid nucleation score entry was “inactive”.

For the substance VCDSHQ, the amyloid nucleation score result was “inactive”.

Consider SGMKWYLRLYV, for which the amyloid nucleation score result is “inactive”.

For LSGRIAKTKRLIVHRLCEEG, the amyloid nucleation score result was “inactive”.

With SRWATGWTTIISYMEPWFRA, the amyloid nucleation score entry was “inactive”.

On to NWRMVQNQVVWVLRLNTYHY, for which the amyloid nucleation score result was “inactive”.

As for HTVKEGSSNNVVRVRIARRF, the amyloid nucleation score entry was “inactive”.

For the substance SLGFGIDSSYGLLTGYKFFT, the amyloid nucleation score was 0.264 ± 0.21.

In turn, NLLGTVIIFLRDGSS yielded an amyloid nucleation score of 2.13 ± 0.064.

Regarding KTWVSIVSGLKADSGGGLHA, the amyloid nucleation score result is “inactive”.

Take LDKAHHHLETAKLLLAWGVI: the amyloid nucleation score result is “inactive”.

For TSLSTSKVLDASLRMDQLST, the amyloid nucleation score entry is “inactive”.

With VLGPLQLRRIAHETGRCNAM, the amyloid nucleation score result is “inactive”.

For NKSYNDRARYVARGRDI, the amyloid nucleation score result was “inactive”.

HIINCFIFLNVTDYTIVFLL showed an amyloid nucleation score of 2.21 ± 0.074.

Regarding VFVSLISSMTIFTCFVPECE, the amyloid nucleation score turned out to be 3.28 ± 0.069.

For the substance LMVASISNVQRRIVRVKLCD, the amyloid nucleation score entry was “inactive”.

SNHSRYYRNHDVFWYNIEVG: the amyloid nucleation score entry was “inactive”.

Consider CHQKMSVA, for which the amyloid nucleation score result is “inactive”.

Turning to MFCMYTRDREIYLVETLLYV, the amyloid nucleation score entry was “inactive”.

Regarding VCYYVFRTDIIIVIRVDAWL, the amyloid nucleation score result is “inactive”.

As to GSALVLCELGSVAKSLSGNL, the amyloid nucleation score entry was “inactive”.

On to IKFVIIRITHSREKFSVPLS, for which the amyloid nucleation score entry was “inactive”.

YRFFVKYMLLIYLINFNIFL returned an amyloid nucleation score of 0.057 ± 0.6.

Take RRSNSHYM: the amyloid nucleation score result is “inactive”.

As for FYNFSTCVTRGWYVFMRC, the amyloid nucleation score result was “inactive”.

In turn, VEIISFSVNKTFQAVFGVDK gave an amyloid nucleation score of 1.47 ± 0.072.

On to YTDSLVLPHGHMIGRVQSFY, for which the amyloid nucleation score entry was “inactive”.

Substance FGFYKWPTTCLGSVSSLSSM yielded an amyloid nucleation score of 0.749 ± 0.11.

For the substance EDPGLYFLRVS, the amyloid nucleation score entry was “inactive”.

In the case of RNWLYLFVRRLISWLNKWGK, the amyloid nucleation score result was “inactive”.

As to ESETWSTYSALQHGQVAIGC, the amyloid nucleation score result was “inactive”.

For the substance PSLLQVHKCLRIRLIWRWLW, the amyloid nucleation score result is “inactive”.

CVSDNSS: the amyloid nucleation score was -0.003 ± 0.8.

Consider TYLHDLYT, for which the amyloid nucleation score result was “inactive”.

As for VIVASVVLKW, the amyloid nucleation score result is “inactive”.

Take RLLSKVSNFREYTSSSVPDV: the amyloid nucleation score result is “inactive”.

With KNSASLFL, the amyloid nucleation score entry is “inactive”.

On to NRASSVSCS, for which the amyloid nucleation score result is “inactive”.

For the substance ISWVRFRAVFWMRMFEAH, the amyloid nucleation score is -0.441 ± 1.4.

As for GSVGTNCSGFVAPELRSPRC, the amyloid nucleation score entry is “inactive”.

As for LVPVMTFNWPKPSNGVSAVA, the amyloid nucleation score is -0.413 ± 1.

WKDWKLRPNY: the amyloid nucleation score entry was “inactive”.

With APWYVNWGMYNCEWGRGS, the amyloid nucleation score entry is “inactive”.

Consider MSVIIAIAMYRLFRDRTHPL, for which the amyloid nucleation score result is “inactive”.

As to RLFKNGSMGRSYGSVYRPV, the amyloid nucleation score was -0.111 ± 0.81.

Turning to SVLFLTRIEEVGVRYMFKDC, the amyloid nucleation score entry is “inactive”.

For VSMVQVTIRKRAS, the amyloid nucleation score entry is “inactive”.

EIQVV: the amyloid nucleation score entry is “inactive”.

CEEPFETIS: the amyloid nucleation score was found to be 0.949 ± 0.25.

GGNGKAWHVGTVIMCRKLRV had an amyloid nucleation score of 2.5 ± 0.078.

For YVICVISVQRWTM, the amyloid nucleation score entry is “inactive”.

As to RSILDM, the amyloid nucleation score result was “inactive”.

For IEHSQYPAQAKPRLGSCLVL, the amyloid nucleation score entry is “inactive”.
